Patent US6451759 (University of California, dated 2002)

Target: T1, Fas on Jurkat T cells (human, UniProt P25445 26-335)
T1 sequence (looked up): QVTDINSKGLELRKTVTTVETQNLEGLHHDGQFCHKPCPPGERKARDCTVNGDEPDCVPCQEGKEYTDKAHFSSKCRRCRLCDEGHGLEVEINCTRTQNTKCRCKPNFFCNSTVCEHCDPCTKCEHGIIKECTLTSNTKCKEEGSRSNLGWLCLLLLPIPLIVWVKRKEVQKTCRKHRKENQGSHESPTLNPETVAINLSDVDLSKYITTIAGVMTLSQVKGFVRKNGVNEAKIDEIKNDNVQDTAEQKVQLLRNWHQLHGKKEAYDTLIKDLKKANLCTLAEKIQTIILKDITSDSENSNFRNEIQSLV
Assay: cell-based or functional assay

**Q.** How did the “percent specific 51Cr release from Jurkat target cells (cytotoxicity assay, transfected COS-7 effector cells)” value turn out when SQMHTASSLEKQIGHPSPPPEKKELRKVAHLTGKSN (ligand) [deletion mutant 2 of human FasL] was run?
**A.** ~2 fold over wild-type FasL
